Target: HA-tagged Patched 1 (Ptc1), expressed in 293T cells (UniProt Q61115)
Assay: pull-down

UniProt Q61115, sequence (Q61115 whole entry): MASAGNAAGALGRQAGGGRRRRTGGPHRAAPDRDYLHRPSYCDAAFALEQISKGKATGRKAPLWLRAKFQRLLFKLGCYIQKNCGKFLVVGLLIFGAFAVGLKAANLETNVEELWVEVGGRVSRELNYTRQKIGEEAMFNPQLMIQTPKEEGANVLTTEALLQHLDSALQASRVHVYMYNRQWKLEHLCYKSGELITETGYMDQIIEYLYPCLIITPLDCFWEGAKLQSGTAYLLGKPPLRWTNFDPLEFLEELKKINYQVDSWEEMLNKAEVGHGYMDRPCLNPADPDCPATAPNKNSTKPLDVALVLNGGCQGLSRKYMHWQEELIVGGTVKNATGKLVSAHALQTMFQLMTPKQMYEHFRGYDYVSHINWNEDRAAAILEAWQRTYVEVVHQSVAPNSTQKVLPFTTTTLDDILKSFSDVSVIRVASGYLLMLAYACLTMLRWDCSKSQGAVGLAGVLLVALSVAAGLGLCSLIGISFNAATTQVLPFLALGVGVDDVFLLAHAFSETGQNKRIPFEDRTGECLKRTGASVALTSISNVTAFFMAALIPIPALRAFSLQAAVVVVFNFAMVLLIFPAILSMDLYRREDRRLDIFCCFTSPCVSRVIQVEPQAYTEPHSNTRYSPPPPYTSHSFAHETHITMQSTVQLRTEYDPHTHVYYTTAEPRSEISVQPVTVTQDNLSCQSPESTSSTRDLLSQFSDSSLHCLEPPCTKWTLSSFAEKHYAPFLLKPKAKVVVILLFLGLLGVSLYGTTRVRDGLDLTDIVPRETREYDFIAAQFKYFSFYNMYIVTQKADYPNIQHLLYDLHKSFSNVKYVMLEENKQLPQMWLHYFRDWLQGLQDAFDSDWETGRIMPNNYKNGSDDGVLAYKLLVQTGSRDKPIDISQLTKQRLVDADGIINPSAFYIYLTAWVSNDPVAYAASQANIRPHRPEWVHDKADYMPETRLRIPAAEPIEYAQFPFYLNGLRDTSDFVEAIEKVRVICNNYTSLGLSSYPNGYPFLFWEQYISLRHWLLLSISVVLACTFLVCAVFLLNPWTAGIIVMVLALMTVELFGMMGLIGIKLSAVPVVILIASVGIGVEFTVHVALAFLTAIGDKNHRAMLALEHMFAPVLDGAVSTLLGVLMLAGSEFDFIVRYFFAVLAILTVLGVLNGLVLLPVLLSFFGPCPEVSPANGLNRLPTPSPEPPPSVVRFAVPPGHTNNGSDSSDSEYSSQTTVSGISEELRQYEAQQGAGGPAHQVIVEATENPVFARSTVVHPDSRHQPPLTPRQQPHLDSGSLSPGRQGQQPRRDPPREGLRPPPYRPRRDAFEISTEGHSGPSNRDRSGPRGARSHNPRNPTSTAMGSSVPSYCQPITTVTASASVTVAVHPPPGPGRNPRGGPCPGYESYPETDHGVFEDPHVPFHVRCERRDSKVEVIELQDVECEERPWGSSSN

With “GPC5-AP fusion protein in conditioned medium” the Kd was 37 nM.

Reference: article PMC3044117
